Assay: soluble on expression in E. coli; label from the status in PepcDB or PDB records
For “MEGVVRLEVPTPEEGFVNITRKVEAALSGHTGLVYLFVPHTTCGLTVQEGADPTVAQDLLGRLAELAPRHRPQDRHLEGNSHAHLKSLLTGVHLLLLAEKGRLRLGRWQQVFLAEFDGPRVREVWVRLL”, the “soluble on expression in E. coli” value was “soluble”.
In the case of “MLNGKNKSAVNRQRFLKRHKEQIKESVADAVNRRSITNTETGEDVSIPHKDINEPIFHQGKGGVRERVHPGNDQFITGDKIERPKGGGQGSGSGEGNASPDGEGQDEFVFQISKDEYLDILFEDLELPNLEKNQIAKITEWKTHRAGFQTAGIPSNISVIRSLQQSLARRTAMTAGKKRLLKELEDELTRIKNIEPAQQLEENRLKKEIEELRKKIENVPFIDTFDLRFKNYEKRPVPSSQAVMFCLMDVSGSMDQATKDIAKRFYVLLYLFLTRTYENVDVVFIRHHTQAKEVDEHEFFYSQETGGTIVSSALKLMDEIVKERYPVGQWNIYAAQASDGDNWADDSPRCRDLLVNKLLPNCQYYSYIEITRRSHQTLWHEYEKLTDEFPNFAMKNIRSVEDIFPVFRELFQKETALEHHHHHH”, the “soluble on expression in E. coli” value is reported as “not soluble”.
For “MRKQNRPNQTARKQMQNLTVELFARDKNARRQLLNVALTATPPPSVEPSSPTRPSEPIPPPLPEPIPELVQILLAAEPNKPSVPKRSNRKKLTYKQPPRNSTPQVPKVAVTLPVPEPVPEPVPEPVPESTPEPISEPLPVVQEEPASDSLTVQDEQIAQAEPAVEPEEPVVVEHVEVVTASEDPTLESSPPSEPPLLTTPTTPIEDPEPYVTPPPLQRVPYKAQLTHLANIRAVTESMNIAAIPAHHQQHQPQEPMSFAACVRKQPSIESMSVSPSPYAKFDGKTSPFNVGGFSNPGGFGGFSRLDPSKNVNPFANRKRFNYDYDSLPRDSQSSSRFMDRSDLSDGFSPFNSKPNGFTNRVIPRESASSGMLPSWYKGRSFSAASSHYPYSQRSTSTGHFSSFSRPSQSTSMNIPSHGHVEELDGFLAASGQTNPFFKRTDLNMKKERWAKIKAKKRMLRRPVEDQFYEDPDIEEEILHGNGVMLNQIVQQSSAGNYEDADLLRKYRRDVAFVKERVLNAIDGNIDGIRDLRFLLASVQTYGNIDGECMLAEMAMNEFSLFSGIVEKFHAIVGPWMPESESHRRRASRHALETHRIPLQNNFATITKKRLVEEILGRVEPSIACHQGVKVGLYSDACNEKTKIDLNIKNNFKDPGMLCDKNDRRFILVLQSELDLMVDSMKHLANNVGFHYDGFPVTPNCFVIVEAFVEAISDIMNEKIDVETMRWFSLLGQKVDAEDSVSPWETGTDFHCARHSEPKSNFCASVTVGRTCCIVYHVIGSFFRRYHLKKIPTAHQPSSSNSVQ”, the “soluble on expression in E. coli” value was “not soluble”.
With “MALLEICCYSMECALTAQRNGADRIELCAAPKEGGLTPSFGVLRSVREHITIPVHPIIRPRGGDFYYTDGEFAAMLEDIRLVRELGFPGLVTGVLTVDGDVDMSRMEKIMAAAGPLAVTFHRAFDMCANPFNALKNLADAGVARVLTSGQKADAAQGLSIIMELIAQGDAPTIMAGAGVRANNLQNFLDAGVREVHSSAGVLLPSPMRYRNQGLSMSADIQADEYSRYRVEGAAVAEMKGIIVRHQAK” the “soluble on expression in E. coli” value was “not soluble”.
With “MGSDKIHHHHHHMDVSITQTSADKIKAGKSGLLLISDNYDAFAARVLAARGAARTLDLMYYLWHDDHTGRLLLQEVVRAAQRGVRVRMLLDDVNPRKSDAAYLALSNHPNIELKLFNPSGIRARGLMRGAEVLLRLFALTRRMHNKAWIADDNIAIVGGRNVGDAYFDAAETNFRDLDMLLLGPAVQQTAQIFQTFWVCQDAKPIAELGAAAPGSHAPYFEGREEKTESTLLSGIRDKGSIAEFISASSNVHWVERVRVISDPPEKVRGWRPRSWLMKELLPIIQSARKRVEIVSPYFIPGKKGSKILGDLVDDGVQVAVLTNSLAATDVAAVHGAYANYRKRLLRMGVQLFELQPFSRQPKISVFGSKGASLHTKAFSVDNRIGFVGSFNFDPRSVSLNSEMGVLFEDENLVAELRHRFKSEIAPEASYRLELKNEVLRWHGSDEGRLQTYTREPEAAWFRRILAALVRHLPIESQL” the “soluble on expression in E. coli” value was “not soluble”.
With “MPAYKYNRVFLIVMDSVGIGEAPDAADFNDEGAHTLGHIAEHMNGLHMPNMAKLGLGLIEDIKGVEKTEHPLAYYGKLQEASNGKDTMTGHWEIMGLYIDKPFKVFPEGFPDELLQELEKRSGRKIIGNKPASGTAILDELGQEHMETGALIVYTSADSVLQIAAHEEVVPLEELYRICETARELTLDPKYMVGRIIARPFVGEPGQFKRTPNRHDYALKPFDRTVMNELKDCGLDVISIGKISDIYDGEGITSSRRTVSNMDGMDKVIDTLGEDFTGLSFANLVDFDALFGHRRDPEGYGRALEEFDARLPEVFGKMREDDLLIITADHGNDPIHHGTDHTREYVPILAYSKKHKKAQMLPLADTFADIGATIADNFQTNKPKYGKSFLSLLQ” the “soluble on expression in E. coli” value was “not soluble”.
